These results are taken from patent US20230235013A1 (MABSOLVE, published 2023).

For assay [1], the target named is T1, CD3D/CD3E heterodimer (Sino Biologicals Cat. No. CT038-H2508H) (human, UniProt P04234 22-105; P07766 23-126).
T1 construct: bought; also called CD3 antigen; human CD3
Nature of the assay: ELISA, antigen coated, antibody 5 µg/mL.

In assay [2] the target is T2, Sheep Fc-CD52 fusion protein (Absolute Antibody Cat. No. PR00205) (human, UniProt P31358 25-36).
T2 construct: bought; also called CD52 antigen; human CD52; not shown: sheep Fc
Put plainly: ELISA, antigen coated, antibody 5 µg/mL.

The target of assay [3] is T3, Histidine-tagged recombinant human FcγRI (CD64) (human, UniProt P12314 16-288).
T3 construct: bought; also called Sino Biological Cat. No. 12056-H08H
Put plainly: SPR, captured His-receptor. (SPR reads the build-up and loss of mass on a sensor chip optically.)

For assay [4], the target named is T4, mouse FcγRI (Sino Biological Cat. No. 50086-M08H) (mouse, UniProt P26151 25-297).
T4 construct: bought
T4 sequence (looked up): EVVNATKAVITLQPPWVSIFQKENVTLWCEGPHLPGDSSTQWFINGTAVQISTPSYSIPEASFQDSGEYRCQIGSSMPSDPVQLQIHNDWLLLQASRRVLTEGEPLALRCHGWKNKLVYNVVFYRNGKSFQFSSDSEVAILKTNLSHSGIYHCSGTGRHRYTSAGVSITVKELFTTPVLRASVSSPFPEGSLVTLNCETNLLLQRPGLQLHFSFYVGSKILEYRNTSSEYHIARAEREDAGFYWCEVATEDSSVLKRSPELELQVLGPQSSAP
Put plainly: SPR, captured His-receptor.

In assay [5] the target is T5, human FcγRIIA (R131, Sino Biological Cat. No. 10374-H08H) (human, UniProt P12318 34-218).
T5 construct: bought; also called human FcγRIIa R131 allele; FcγRII allele R131
T5 sequence (looked up): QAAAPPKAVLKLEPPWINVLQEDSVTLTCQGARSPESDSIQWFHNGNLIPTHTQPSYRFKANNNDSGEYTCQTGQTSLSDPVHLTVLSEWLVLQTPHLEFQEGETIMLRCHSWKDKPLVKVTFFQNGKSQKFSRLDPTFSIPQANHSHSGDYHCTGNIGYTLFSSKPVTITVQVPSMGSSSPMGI
Nature of the assay: SPR, captured His-receptor.

The target of assay [6] is T6, human FcγRIIB (Sino Biological Cat. No. 10259-H08H) (human, UniProt P31994 43-217).
T6 construct: bought
T6 sequence (looked up): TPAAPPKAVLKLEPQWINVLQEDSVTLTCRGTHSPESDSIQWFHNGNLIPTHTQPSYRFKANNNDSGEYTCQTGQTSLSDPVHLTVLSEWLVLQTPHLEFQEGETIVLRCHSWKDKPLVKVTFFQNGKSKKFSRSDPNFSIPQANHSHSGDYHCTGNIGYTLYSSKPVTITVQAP
Nature of the assay: SPR, captured His-receptor.

The target in assay [7] is T7, human FcγRIIIB (NA2 allotype, Sino Biological Cat. No. 11046-H08H) (human, UniProt O75015 17-200).
T7 construct: bought; also called human FcγRIIIb NA2 allele
Nature of the assay: SPR, captured His-receptor.

Assay [8] deals with T8, human FcγRIIIA (F158, Sino Biological Cat. No. 10389-H08H) (human, UniProt P08637 17-208).
T8 construct: bought; also called human FcγRIIIa F158 allele
T8 sequence (P08637 17-208 limits assumed): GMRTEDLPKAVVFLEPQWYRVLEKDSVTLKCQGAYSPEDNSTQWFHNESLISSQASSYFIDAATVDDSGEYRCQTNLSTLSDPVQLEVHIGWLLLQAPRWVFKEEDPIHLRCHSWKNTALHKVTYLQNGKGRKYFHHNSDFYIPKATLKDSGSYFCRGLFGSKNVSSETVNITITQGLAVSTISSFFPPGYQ
Nature of the assay: SPR, captured His-receptor.

Assay [9] addresses human FcγRIIIa V158 allele (human, UniProt P08637 17-208, limits assumed). Put plainly: SPR, captured His-receptor.

Sequence of human FcγRIIIa V158 allele (P08637 17-208 F176V limits assumed): as the sequence (P08637 17-208 limits assumed) above, with F160V counted along it

B1: anti-CD3 (muromonab variable regions) human IgG1 wild type reference (antibody)
heavy: not shown
light: QIVLTQSPAIMSASPGEKVTMTCSASSSVSYMNWYQQKSGTSPKRWIYDTSKLASGVPAHFRGSGSGTSYSLTISGMEAEDAATYYCQQWSSNPFTFGSGTKLEIKRTVAAPSVFIFPPSDEQLKSGTASVVCLLNNFYPREAKVQWKVDNALQSGNSQESVTEQDSKDSTYSLSSTLTLSKADYEKHKVYACEVTHQGLSSPVTKSFNRGEC
notes: also called 3-1; wild-type CD3 antibody
On to B1, for which the “Mean Absorbance” value came to 1.01 absorbance in assay [1] and 0.006 absorbance in assay [2].

B2: anti-CD3 human IgG1 L234T/L235Q/G236R (antibody)
heavy: not shown
light: QIVLTQSPAIMSASPGEKVTMTCSASSSVSYMNWYQQKSGTSPKRWIYDTSKLASGVPAHFRGSGSGTSYSLTISGMEAEDAATYYCQQWSSNPFTFGSGTKLEIKRTVAAPSVFIFPPSDEQLKSGTASVVCLLNNFYPREAKVQWKVDNALQSGNSQESVTEQDSKDSTYSLSSTLTLSKADYEKHKVYACEVTHQGLSSPVTKSFNRGEC
notes: also called 3-60; copies: 2 + 2
B2: the binding result in assay [3], in assay [4], in assay [5], in assay [6] and in [7] was “no binding (tested: 100 µg/mL)” each time. In addition, in [1], the “Mean Absorbance” value is 1.33 absorbance.

B3: anti-CD3 human IgG1 L234T/L235T/G236R (antibody)
heavy: not shown
light: QIVLTQSPAIMSASPGEKVTMTCSASSSVSYMNWYQQKSGTSPKRWIYDTSKLASGVPAHFRGSGSGTSYSLTISGMEAEDAATYYCQQWSSNPFTFGSGTKLEIKRTVAAPSVFIFPPSDEQLKSGTASVVCLLNNFYPREAKVQWKVDNALQSGNSQESVTEQDSKDSTYSLSSTLTLSKADYEKHKVYACEVTHQGLSSPVTKSFNRGEC
notes: also called 3-63; copies: 2 + 2
As for B3, the binding result in assay [3], in assay [4], in assay [5], in [6] and in [7] was “no binding (tested: 100 µg/mL)” each time. Further, in assay [1], the “Mean Absorbance” value was determined as 1.04 absorbance.

B4: anti-CD3 human IgG1 L234G/L235S/G236R (antibody)
heavy: not shown
light: QIVLTQSPAIMSASPGEKVTMTCSASSSVSYMNWYQQKSGTSPKRWIYDTSKLASGVPAHFRGSGSGTSYSLTISGMEAEDAATYYCQQWSSNPFTFGSGTKLEIKRTVAAPSVFIFPPSDEQLKSGTASVVCLLNNFYPREAKVQWKVDNALQSGNSQESVTEQDSKDSTYSLSSTLTLSKADYEKHKVYACEVTHQGLSSPVTKSFNRGEC
notes: also called 3-19; copies: 2 + 2
For B4, the binding result in [3], in [4], in assay [5], in [6] and in assay [7] was “no binding (tested: 100 µg/mL)” in each case. The “Mean Absorbance” value in [1] stood at 1.24 absorbance.

B5: anti-CD3 human IgG1 L234S/L235V/G236R (antibody)
heavy: not shown
light: QIVLTQSPAIMSASPGEKVTMTCSASSSVSYMNWYQQKSGTSPKRWIYDTSKLASGVPAHFRGSGSGTSYSLTISGMEAEDAATYYCQQWSSNPFTFGSGTKLEIKRTVAAPSVFIFPPSDEQLKSGTASVVCLLNNFYPREAKVQWKVDNALQSGNSQESVTEQDSKDSTYSLSSTLTLSKADYEKHKVYACEVTHQGLSSPVTKSFNRGEC
notes: also called 3-53; copies: 2 + 2
As to B5, the binding result in assay [3], in [4], in [5], in [6] and in assay [7] was “no binding (tested: 100 µg/mL)” each time. In addition, the “Mean Absorbance” value in [1] was 1.25 absorbance.

B6: anti-CD52 human IgG1 L234S/L235T/G236R (antibody)
heavy: QVQLQESGPGLVRPSQTLSLTCTVSGFTFTDFYMNWVRQPPGRGLEWIGFIRDKAKGYTTEYNPSVKGRVTMLVDTSKNQFSLRLSSVTAADTAVYYCAREGHTAAPFDYWGQGSLVTVSSASTKGPSVFPLAPSSKSTSGGTAALGCLVKDYFPEPVTVSWNSGALTSGVHTFPAVLQSSGLYSLSSVVTVPSSSLGTQTYICNVNHKPSNTKVDKKVEPKSCDKTHTCPPCPAPESTRGPSVFLFPPKPKDTLMISRTPEVTCVVVDVSHEDPEVKFNWYVDGVEVHNAKTKPREEQYNSTYRVVSVLTVLHQDWLNGKEYKCKVSNKALPAPIEKTISKAKGQPREPQVYTLPPSRDELTKNQVSLTCLVKGFYPSDIAVEWESNGQPENNYKTTPPVLDSDGSFFLYSKLTVDKSRWQQGNVFSCSVMHEALHNHYTQKSLSLSPGK
light: not shown
notes: also called 4-52; copies: 2 + 2
Take B6: the binding result in assay [3], in [4], in assay [5], in [6], in assay [8] and in assay [9] was “no binding (tested: 100 µg/mL)” in each case. The binding result in assay [7] is listed as “no binding (tested: 100 µg/mL)”. Moreover, the “Mean Absorbance” value in assay [2] is 1.44 absorbance.

B7: anti-CD52 human IgG1 L234G/L235S/G236R (antibody)
heavy: QVQLQESGPGLVRPSQTLSLTCTVSGFTFTDFYMNWVRQPPGRGLEWIGFIRDKAKGYTTEYNPSVKGRVTMLVDTSKNQFSLRLSSVTAADTAVYYCAREGHTAAPFDYWGQGSLVTVSSASTKGPSVFPLAPSSKSTSGGTAALGCLVKDYFPEPVTVSWNSGALTSGVHTFPAVLQSSGLYSLSSVVTVPSSSLGTQTYICNVNHKPSNTKVDKKVEPKSCDKTHTCPPCPAPEGSRGPSVFLFPPKPKDTLMISRTPEVTCVVVDVSHEDPEVKFNWYVDGVEVHNAKTKPREEQYNSTYRVVSVLTVLHQDWLNGKEYKCKVSNKALPAPIEKTISKAKGQPREPQVYTLPPSRDELTKNQVSLTCLVKGFYPSDIAVEWESNGQPENNYKTTPPVLDSDGSFFLYSKLTVDKSRWQQGNVFSCSVMHEALHNHYTQKSLSLSPGK
light: not shown
notes: also called 4-19; copies: 2 + 2
Turning to B7, the binding result in assay [3], in assay [4], in assay [5], in [6], in assay [8] and in [9] was “no binding (tested: 100 µg/mL)” in each case. Moreover, in [7], the binding result is “no binding (tested: 100 µg/mL)”. The “Mean Absorbance” value in assay [2] worked out at 1.13 absorbance.

B8: anti-CD52 human IgG1 L234S/L235V/G236R (antibody)
heavy: QVQLQESGPGLVRPSQTLSLTCTVSGFTFTDFYMNWVRQPPGRGLEWIGFIRDKAKGYTTEYNPSVKGRVTMLVDTSKNQFSLRLSSVTAADTAVYYCAREGHTAAPFDYWGQGSLVTVSSASTKGPSVFPLAPSSKSTSGGTAALGCLVKDYFPEPVTVSWNSGALTSGVHTFPAVLQSSGLYSLSSVVTVPSSSLGTQTYICNVNHKPSNTKVDKKVEPKSCDKTHTCPPCPAPESVRGPSVFLFPPKPKDTLMISRTPEVTCVVVDVSHEDPEVKFNWYVDGVEVHNAKTKPREEQYNSTYRVVSVLTVLHQDWLNGKEYKCKVSNKALPAPIEKTISKAKGQPREPQVYTLPPSRDELTKNQVSLTCLVKGFYPSDIAVEWESNGQPENNYKTTPPVLDSDGSFFLYSKLTVDKSRWQQGNVFSCSVMHEALHNHYTQKSLSLSPGK
light: not shown
notes: also called 4-53; copies: 2 + 2
As to B8, the binding result in [3], in assay [4], in assay [5], in assay [6], in [8] and in assay [9] was “no binding (tested: 100 µg/mL)” in each case. For the same molecule, the binding result in assay [7] was “no binding (tested: 100 µg/mL)”. Further, the “Mean Absorbance” value in [2] is 1.23 absorbance.
